Data on one molecule can be found in doi:10.1101/2025.04.01.646186 (bioRxiv, 2025).

In this assay the target is PSMA2 (subunit of the human 20S proteasome) (human, UniProt P25787 1-234). The assay is described as follows: cryo-EM structure.
Sequence of PSMA2 (subunit of the human 20S proteasome) (P25787 whole entry): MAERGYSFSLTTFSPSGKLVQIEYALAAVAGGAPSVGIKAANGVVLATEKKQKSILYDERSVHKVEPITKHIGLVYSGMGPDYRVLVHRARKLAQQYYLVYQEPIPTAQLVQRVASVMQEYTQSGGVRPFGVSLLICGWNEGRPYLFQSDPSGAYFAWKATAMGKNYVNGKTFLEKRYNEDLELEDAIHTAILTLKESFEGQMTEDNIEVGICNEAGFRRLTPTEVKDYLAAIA

Turning to H-DNDDDLYG-OH [VCP C-terminal HbYX peptide H-DNDDDLYG-OH], the binding result is recorded as “binds”.
